In the supplement of paper PMC9170038:

Test system: MS2 coat protein
Assay: apparent KD of MS2 coat protein; designed switch direction (-1 OFF switch, 1 ON switch): 1; higher = weaker reporter binding
Outline: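 RNA switches sharing common flanks were transcribed by stalled E. coli RNA polymerase on Illumina chips. A doubling series of SNAP-549-labelled MS2 coat protein, from 0.7 or 1.5 nM to 3 µM, was applied in Tris-HCl pH 7.5 buffer with KCl, MgCl2, BSA, DTT, tRNA and Tween-20. Each step lasted 0.8–1.5 h at the bottom of the series and 10–20 min at the top. Normalised cluster fluorescence was curve-fitted, giving apparent KD as the per-design median over clusters.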

[1] = input ligand: microRNA oligo, concentration not stated
[2] = Eterna round: R95, input ligand: FMN 200 uM
[3] = Eterna round: R95, input ligand: microRNA oligo, concentration not stated
[4] = Eterna round: R95, input ligand: none

| Sequence | apparent KD of MS2 coat protein (input ligand: FMN 200 uM) [nM] | apparent KD of MS2 coat protein [1] [nM] | apparent KD of MS2 coat protein (input ligand: none) [nM] | apparent KD of MS2 coat protein [2] [nM] | apparent KD of MS2 coat protein [3] [nM] | apparent KD of MS2 coat protein [4] [nM] |
| --- | --- | --- | --- | --- | --- | --- |
| CGCCAGAGAGCAGGAUAUGGGCCACAGCCUAAGGGCUGUGAACUCACAUGAGGAUCACCCAUGUCCCAGAAGGGCUCCUAGCUA [Erzabe] (Eterna round: R96, puzzle: Same State NG 2) | 203 | 701 | 1920 |  |  |  |
| AGUCCAGCCUGAGCUGGACAAAAGCAUGUACAUGAGGAUCACCCAUGUUCAUGUACAAGCUUUUUGCUCGUCAUAAA [Mat - hsa-mir-208a - Mod of JL - 51] (puzzle: Sensor for hsa-mir-208a) |  |  |  | 402 | 14.9 | 474 |
| GGAGGACAUGAGGAUCACCCAUGUGGAUGGGCGCUAGGAUAUGCGAGAGGGUGGAGAGAAGCAGAAGGAGUGGAUA [JR_SS1_Sub038] (puzzle: Same State 1) |  |  |  | 76.7 | 62.9 | 75 |
| GAGUGGUGGAGAGGAUAUACAUUGUUAUUCACUGUAGAAGGUUCUAACAUGAGGAUCACCCAUGUAGGACUAUUCCUGUGUUUU [Parity 57 - Jieux - Same State NG 1] (Eterna round: R96, puzzle: Same State NG 1) |  | 9.37 |  |  |  |  |
| UGGUACAUGGGAGGAUAUGGGUUGAUGACAUGAGGAUCACCCAUGUUAAAUAUGCCGAGAGGCAACUAGAAGGCCCAUGUACCU [JL SSNG1 3.99] (Eterna round: R96, puzzle: Same State NG 2) | 62.7 | 1320 | 1080 |  |  |  |
| GCGGAGAGGUAAGGAUAUCCAUGGAAAAAACAUGAGGAUCACCCAUGUAGGAAAAAAACUAGGAGGGAGAAGGUACCGGGACGC [AK SSNG2-V2-20] (Eterna round: R96, puzzle: Same State NG 2) | 21.7 | 23.4 | 29.8 |  |  |  |
| UAGGGACAUGAGGAUCACCCAUGUGCCUCAUAUGGAGAAACUCAGGAUAUGCUGAGGAUCACCCGGCAGAAGGGAGAUCCGAGG (Eterna round: R96, puzzle: Same State NG 3) | 86.6 | 33 | 53.4 |  |  |  |
| CGUCGUUUGAUAGGAUAUCGCUUUACAUGAGGAUCACCCAUGUUUCCCACGCUGGUUUUUCUUUCCGAGAAGGAUUCUGAUGUU [salish99_SSNG02_r04_029] (Eterna round: R96, puzzle: Same State NG 2) | 44.6 | 31.4 | 40.6 |  |  |  |
| GAGAGAGGGUGAGGAUAUUUAGUGAUAAUGAUGGGAGAAGGCACAGACAUGAGGAUCACCCAUGUGGGAAUAAUCCAGAGAGAG [Parity 10 - Jieux - Same State NG 1] (Eterna round: R96, puzzle: Same State NG 1) | 145 | 92.7 | 232 |  |  |  |
| CUGAGCAAUCGAGGAUAUCACGUCGAUUAGACGUGAGAAGGCGAUCAUAACAUGAGGAUCACCCAUGUAUUACAUGAAGCUCAG [SSNG1/4-A2] (Eterna round: R96, puzzle: Same State NG 1) | 15.3 | 12.9 | 20.3 |  |  |  |
| AUAUCCUUUUUAUACAUGAGGAUCACCCAUGUUUUUCUUACGUAGGAUAUCGUUGUUUUUUUUUACGAGAAGGACGUAGAAUGU [JR_SSND3_Sub063] (Eterna round: R96, puzzle: Same State NG 3) |  | 23.5 |  |  |  |  |
| GGUAGGUUACUACCAAACAUGAGGAUCACCCAUGUAAAUGGGAAGGAUAUGGUACCUAUUUGGUACCAGAAGGUCCAAUUAAUU [JL Fiskers NG3ss - 2 mod 2] (Eterna round: R96, puzzle: Same State NG 3) | 670 | 1720 | 4550 |  |  |  |
| AAACUACGUGCACAGGAUAUACGUUCCUAUACAUGAGGAUCACCCAUGUACCAACUGAAAAGGAAGUAGAAGGGUGUCCGUAAAC [Erbibearza] (puzzle: Same State 2) |  |  |  | 17.7 | 80.3 | 53.7 |
| AUUAAUAAUGCAGGAUAUGAUUAACAUGAGGAUCACCCAUGUGGUGUUGUGAGUAAGGAGAGUGAUCAGAAGGGCAUUUUUUUU [JMF's solution 27] (Eterna round: R96, puzzle: Same State NG 2) | 552 | 374 | 385 |  |  |  |
| GCUAGAAUAAACGCCUACAUGAGGAUCACCCAUGUAUGUAGGCAGGAUAUCGUAUGCAAAGCAUACGAGAAGGGCCUUACUAGC [Mat - Same State NG 3 - JL Mod - D33] (Eterna round: R96, puzzle: Same State NG 3) | 25.7 | 27.7 | 43.4 |  |  |  |
| GUAAAACAUGAGGAUCACCCAUGUCAACAAAGUCGAGGAUAUGGGCAAAUAAAAUAAGAACCAGAAGGCGAAUAAC [salish99_SS1_r3_010] (puzzle: Same State 1) |  |  |  | 45.8 | 377 | 371 |

| Sequence | apparent KD of MS2 coat protein (input ligand: FMN 200 uM) [nM] | apparent KD of MS2 coat protein [1] [nM] | apparent KD of MS2 coat protein (input ligand: none) [nM] | apparent KD of MS2 coat protein [2] [nM] | apparent KD of MS2 coat protein [3] [nM] | apparent KD of MS2 coat protein [4] [nM] |
| --- | --- | --- | --- | --- | --- | --- |
| UUUAUAUUCAGAGGAUAUUGAUGUUGUAUUUUACAAGAAGGCUGAUUGUUUUGUAAUGUUAUUAUACAUGAGGAUCACCCAUGU [JR_SSNG1_Sub014] (Eterna round: R96, puzzle: Same State NG 1) |  | 17.3 |  |  |  |  |
| GCUCUACAUGAGGAUCACCCAUGUCCAUCCGCACGAGGAUAUGCAUGGGCGAAAGCUGGUGCAGAAGGCGUGGGAC [Tr3Pin] (puzzle: Same State 1) |  |  |  |  | 409 |  |
| GUUACAUGAGGAUCACCCAUGUAUGUGUGGGAGUAAGUGUCUUAGGAUAUCUAUUAUAUAAAUUAAGAGAAGGAAGAUUGUUGU [JMF's solution 16] (Eterna round: R96, puzzle: Same State NG 3) | 126 | 87.9 | 124 |  |  |  |
| GCUCGACGUACGGCCUACAUGAGGAUCACCCAUGUGACUGGGCAGGAUAUCUAAAUGCAGAAUGUAGAGAAGGGCCCGUCGAGC [SameState NG3 #50] (Eterna round: R96, puzzle: Same State NG 3) | 323 | 35.9 | 384 |  |  |  |
| GCCAUCGCAUGAGGAUAUGGCACCGAAACGGUGCCAGAAGGCAUGUCGAAAGACAUGAGGAUCACCCAUGUAGUAUAGAUGGCA [Mat - Same State NG 1 - JL mod - D93] (Eterna round: R96, puzzle: Same State NG 1) | 222 | 228 | 900 |  |  |  |
| GUCCAACAUGAGGAUCACCCAUGUCGGGCGUGCACAGGAUAUCGCGCCGGGAAAGCCCAGCGAGAAGGGUGAUCGA [Atveinla] (puzzle: Same State 1) |  |  |  | 197 | 57.8 | 50.9 |
| UAUCCAUAGAUAGGAUAUUAGAGAACAUGAGGAUCACCCAUGUUUGGCUUGGUUUUAAGCUAAUCUAAGAAGGAUCUUGAUGAA [SameState NG2 #9] (Eterna round: R96, puzzle: Same State NG 2) | 13.3 | 22.9 | 36.5 |  |  |  |
| AGUCCAGCGAAAGCUGGACAAAAGCAUGUACAUGAGGAUCACCCAUGUUCAUGUACAAGCUUUUUGCUCGUCUUGAA [JL mod - D95 - 9] (puzzle: Sensor for hsa-mir-208a) |  |  |  | 313 | 17.1 | 611 |
| GCUGGCAUGCAAGGAUAUCCUUCCGAGUAGGAAGGAGAAGGUGCUUGUGGGACAUGAGGAUCACCCAUGUAUGUUGGCCACGAC [Inrala] (Eterna round: R96, puzzle: Same State NG 1) |  | 82.1 |  |  |  |  |
| AGGCUCAGACUAGGAUAUGAUCAUGGCGCUUCGGCGCAUACAUGAGGAUCACCCAUGUAAAGUGAUCAGAAGGAGUCUGAGCCA [SSNG2/7-C1] (Eterna round: R96, puzzle: Same State NG 2) | 9.82 | 9.08 | 13.6 |  |  |  |
| CAGCUCGUGUGAGGAUAUGCCGCCGUUUCGGCUGCAGAAGGUGCUACGUUACAUGAGGAUCACCCAUGUCUCUGUUGUUUCGUC [salish99_SSNG1_r04_962] (Eterna round: R96, puzzle: Same State NG 1) | 28.6 | 19.1 | 31.8 |  |  |  |
| UAUUAAUCUGUAGGAUAUCUAGGAUAUGGACGAGGAUCACCCGAGCAGCAUCAGCGCACCAGAGGAGAGAAGGACGCUCUGGUG [pwkr ssNG2 2F5 2FMN.25] (Eterna round: R96, puzzle: Same State NG 2) | 332 | 93.7 | 469 |  |  |  |
| UUGCUCGUGUAAGGAUAUGCAGCCGUUUCGGCUGCAGAAGGUACUAUAAUACAUGAGGAUCACCCAUGUCUCUAUUAUUUAGUG [salish99_SSNG1_r04_925] (Eterna round: R96, puzzle: Same State NG 1) | 43 | 38.3 | 49.4 |  |  |  |
| AAAACAUGACGAGGAUAUGGUACAUGAGGAUCACCCAUGUAUGUACCACGACGCGUACGUCGAAUCCAGAAGGCGUCGUGAAAA [Mat - Same State NG 2 - JL mod - D19] (Eterna round: R96, puzzle: Same State NG 2) | 20.3 | 68.5 | 74.1 |  |  |  |
| AGUCCAGCCUGAGCUGGACUGAAGCAUGUACAUGAGGAUCACCCAUGUUCAUGUACAGGCUUUUUGCUCGUCUUAUG [JL-shm-2.02 JL mod] (Eterna round: R96, puzzle: Sensor for hsa-mir-208a) | 619 | 14.6 | 676 |  |  |  |
